Measurements as given in US20200392198A1 (UNIVERSITY OF COPENHAGEN, published 2020).
Positions count from the first letter of the chain named. Ends that are not written are not given here. * marks the point of attachment. Palmitoyl = CCCCCCCCCCCCCCCC(=O)*; Lauroyl = CCCCCCCCCCCC(=O)*

T1: human GLP-2 receptor (human, UniProt O95838 1-553)
T1 sequence (looked up): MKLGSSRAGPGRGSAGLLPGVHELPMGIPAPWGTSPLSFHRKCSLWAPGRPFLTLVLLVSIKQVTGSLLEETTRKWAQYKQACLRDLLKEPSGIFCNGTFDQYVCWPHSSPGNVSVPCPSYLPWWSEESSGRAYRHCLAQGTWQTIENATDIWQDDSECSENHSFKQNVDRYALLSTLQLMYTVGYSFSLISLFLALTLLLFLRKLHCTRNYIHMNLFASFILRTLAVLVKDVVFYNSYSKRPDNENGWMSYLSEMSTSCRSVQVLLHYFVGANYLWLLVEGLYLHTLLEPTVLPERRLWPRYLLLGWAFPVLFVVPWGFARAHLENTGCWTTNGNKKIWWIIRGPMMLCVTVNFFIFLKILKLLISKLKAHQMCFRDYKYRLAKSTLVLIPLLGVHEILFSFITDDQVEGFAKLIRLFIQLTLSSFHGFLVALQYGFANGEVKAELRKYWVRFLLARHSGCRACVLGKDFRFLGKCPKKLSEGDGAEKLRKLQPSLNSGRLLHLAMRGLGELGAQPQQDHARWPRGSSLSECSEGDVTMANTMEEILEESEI

T2: human GIP receptor (human, UniProt P48546 22-466)
T2 sequence (looked up): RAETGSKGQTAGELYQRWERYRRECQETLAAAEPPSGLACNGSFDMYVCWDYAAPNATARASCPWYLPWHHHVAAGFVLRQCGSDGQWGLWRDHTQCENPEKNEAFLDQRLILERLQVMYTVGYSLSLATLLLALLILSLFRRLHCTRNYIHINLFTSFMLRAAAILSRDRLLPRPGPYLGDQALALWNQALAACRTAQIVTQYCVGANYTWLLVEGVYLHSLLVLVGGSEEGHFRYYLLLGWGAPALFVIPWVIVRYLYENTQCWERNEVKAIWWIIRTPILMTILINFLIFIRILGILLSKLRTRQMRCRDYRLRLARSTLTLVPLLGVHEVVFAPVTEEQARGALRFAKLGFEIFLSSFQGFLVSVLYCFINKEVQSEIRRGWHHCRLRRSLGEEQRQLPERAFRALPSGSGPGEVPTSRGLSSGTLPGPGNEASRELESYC

B1: GIP-GLP-2 co-agonist 22 (peptide)
peptide: HADGTFSSDYSTILDNLAARDFINWLIQTKITD
modifications: not fully specified (residue 1, N-terminus); also: C16 acyl group on His 1 (attachment site not given here)
B2: GIP-GLP-2 co-agonist 29 (peptide)
peptide: B1 peptide with S7I, D33K
modifications: not fully specified (residue 1, N-terminus); also: C16 acyl group on His 1 (attachment site not given here)

These binders were tested against T1, human GLP-2 receptor (assay: cell-based or functional assay).

Row | Binder | EC50 (cAMP) [nM] | Emax (10 µM), % of native GLP-2 [%] | fold (EC50 vs native GLP-2) [fold] | logEC50 (cAMP)
1 | HADGTFISDYSTILDNLAARDFINWLIQTK(Palmitoyl)ITK [GIP-GLP-2 co-agonist 31] | 107 | 91 | 89 | -6.97
2 | HADGTFISDYSTILDNLAARDFINWLIQTKGK(Palmitoyl)K [GIP-GLP-2 co-agonist 36] | 20 | 71 | 17 | -7.7
3 | HADGTFISDYSTILDNLAARDFINWLIQTK(Lauroyl)ITK [GIP-GLP-2 co-agonist 30] | 36 | 73 | 30 | -7.44
4 | B1 | 1.3 | 72 | 1.1 | -8.88
5 | HADGTFISDYSKILDNLAARDFINWLIQTKITK [GIP-GLP-2 co-agonist 24] | 0.74 | 96 | 0.62 | -9.13
6 | HADGTFISDYSTIKDNLAARDFINWLIQTKITK [GIP-GLP-2 co-agonist 25] | 3.5 | 92 | 2.9 | -8.46
7 | HADGTFISDYSTILDNLAARDFINWLIQTKITK (C16 acyl group on Lys 33 (K(c16/33), 'with C16 pos 33')) [GIP-GLP-2 co-agonist 33] | 13 | 82 | 11 | -7.89
8 | HADGTFISDYSTILDKLAARDFINWLIQTKITK [GIP-GLP-2 co-agonist 26] | 0.31 | 100 | 0.26 | -9.51
9 | HADGTFISDYSTILDNLKARDFINWLIQTKITK [GIP-GLP-2 co-agonist 27] | 0.56 | 100 | 0.47 | -9.25
10 | HADGTFISDYSTILDNLAARDFINWLIQTKITK (C12 acyl group on Lys 33 (K(C12/33), 'with C12 pos 33')) [GIP-GLP-2 co-agonist 32] | 6.2 | 91 | 5.1 | -8.21
11 | HADGTFISDYSTILDNLAAKDFINWLIQTKITK [GIP-GLP-2 co-agonist 28] | 1.2 | 112 | 0.98 | -8.93
12 | B2 | 17 | 82 | 14 | -7.76
13 | HADGTFISDYSTILDNLAARDFINWLIQTKGKKNDWKHNITQ [GIP-GLP-2 co-agonist 34] | 1.2 | 94 | 0.96 | -8.94
14 | HADGTFISDYSTILDNLAARDFINWLIQTKGK(Lauroyl)K [GIP-GLP-2 co-agonist 35] | 2.3 | 68 | 1.9 | -8.63
15 | HADGTFSSDYSTILDNLAARDFINWLIQTK(Palmitoyl)ITD [GIP-GLP-2 co-agonist 23] | 1.4 | 57 | 1.2 | -8.85

The binders below were run against T2, human GIP receptor (assay: cell-based or functional assay).

Row | Binder | EC50 (cAMP) [nM] | Emax (10 µM), % of native GIP [%] | fold (EC50 vs native GIP) [fold] | logEC50 (cAMP)
16 | HADGTFISDYSTILDNLAARDFINWLIQTK(Palmitoyl)ITK [GIP-GLP-2 co-agonist 31] | 1.7 | 91 | 19 | -8.77
17 | HADGTFISDYSTILDNLAARDFINWLIQTKGK(Palmitoyl)K [GIP-GLP-2 co-agonist 36] | 0.79 | 100 | 8.9 | -9.1
18 | HADGTFISDYSTILDNLAARDFINWLIQTK(Lauroyl)ITK [GIP-GLP-2 co-agonist 30] | 0.63 | 100 | 7.1 | -9.2
19 | B1 | 0.41 | 100 | 4.6 | -9.39
20 | HADGTFISDYSKILDNLAARDFINWLIQTKITK [GIP-GLP-2 co-agonist 24] | 0.15 | 100 | 1.7 | -9.82
21 | HADGTFISDYSTIKDNLAARDFINWLIQTKITK [GIP-GLP-2 co-agonist 25] | 0.44 | 92 | 4.9 | -9.36
22 | HADGTFISDYSTILDNLAARDFINWLIQTKITK (C16 acyl group on Lys 33 (K(c16/33), 'with C16 pos 33')) [GIP-GLP-2 co-agonist 33] | 0.32 | 100 | 3.6 | -9.5
23 | HADGTFISDYSTILDKLAARDFINWLIQTKITK [GIP-GLP-2 co-agonist 26] | 0.03 | 100 | 0.34 | -10.5
24 | HADGTFISDYSTILDNLKARDFINWLIQTKITK [GIP-GLP-2 co-agonist 27] | 0.55 | 100 | 6.2 | -9.26
25 | HADGTFISDYSTILDNLAARDFINWLIQTKITK (C12 acyl group on Lys 33 (K(C12/33), 'with C12 pos 33')) [GIP-GLP-2 co-agonist 32] | 0.15 | 100 | 1.7 | -9.81
26 | HADGTFISDYSTILDNLAAKDFINWLIQTKITK [GIP-GLP-2 co-agonist 28] | 0.2 | 100 | 2.2 | -9.7
27 | B2 | 1.82 | 115 | 20 | -8.74
28 | HADGTFISDYSTILDNLAARDFINWLIQTKGKKNDWKHNITQ [GIP-GLP-2 co-agonist 34] | 0.1 | 100 | 1.1 | -10
29 | HADGTFISDYSTILDNLAARDFINWLIQTKGK(Lauroyl)K [GIP-GLP-2 co-agonist 35] | 0.48 | 99 | 5.4 | -9.32
30 | HADGTFSSDYSTILDNLAARDFINWLIQTK(Palmitoyl)ITD [GIP-GLP-2 co-agonist 23] | 0.76 | 81 | 8.5 | -9.12
